Results: publication PMC1852638
Like-named read-outs stand apart in the source and are kept apart here.

What was measured:
[1] = biological target: myosin 5 heavy meromyosin (HMM) (UniProt Q99104); assay: inhibition of actin-activated MgATPase
[2] = biological target: myosin 5 heavy meromyosin (HMM) (UniProt Q99104); assay: inhibition of actin-activated MgATPase; remark: listed apart in the source

With “glutathione S-transferase (GST)-47 kDa GTD fusion protein, dimer (from UniProt Q99104 1-1853) (domain or fragment)” the Ki [1] was 530 nM and the Ki [2] was 750 nM.
